# Data as given in patent publication US20090041784A1 (Amgen, published 2009).
# Where a chain is given by its changes, count along the chain named.
# B1: antibody A-18 (antibody, V domains shown)
# VH: QVQLVESGGGVVQPGRSLRLSCAASGFTFSRYGMHWVRQAPGKGLEWVAVIWYDGSHKYYEDSVKGRFTISRDNSKNTLYLQMNSLRADDTGVYYCARVGYGSGWYEYYYHYGMDVWGQGTTVTVSS
# VL: NIVMTQTPLSLSVTPGQPASISCKSSQSLLHSDGKNYLFWYLQKPGQSPQLLIYEVSYRFSGVPDRFSGSGSGTDFSLKISRVEAEDVGVYYCMQNIQPPLTFGQGTRLEIK
# notes: Human antibody from XenoMouse hybridoma (IgG2 or IgG4 strains), purified from conditioned medium; also called L18H18
# B2: antibody A-10 (antibody, V domains shown)
# VH: QVQLQQSGPGLVRPSQTLSLTCAISGDSVSSNYAAWNWIRQSPSRGLEWLGRTYYRSKWYNDYAVSVRSRTTINPDTSKNQFSLQLNSVTPEDTAVYYCTREDGSGWYGAFDIWGQGTMVTVSS
# VL: DIQMTQSPSSLSASVGDRVTITCQASQDISKYLNWYQQKPGKAPKLLIYDASNLETGVPSRFSGSGSGTDFTFTISSLQPEDIATYYCQQYGNLPITFGQGTRLESK
# notes: Human antibody from XenoMouse hybridoma (IgG2 or IgG4 strains), purified from conditioned medium; also called L10H10
# B3: antibody A-16 (antibody, V domains shown)
# VH: QVQLVQSGAEVKKPGASVKVSCKASGYTFTGYYLHWVRQAPGQGLEWMGWIIPDSGGTKYAQKFQGRVTMTRDTSISTAYLELSRLRSDDTAVYYCAREGFHYDILTGSYFYYYGMDVWGQGTTVTVSS
# VL: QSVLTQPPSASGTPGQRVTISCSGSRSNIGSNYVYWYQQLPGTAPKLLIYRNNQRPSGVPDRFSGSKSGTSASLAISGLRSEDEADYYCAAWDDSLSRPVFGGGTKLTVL
# notes: Human antibody from XenoMouse hybridoma (IgG2 or IgG4 strains), purified from conditioned medium; also called L16H16
# B4: antibody A-20 (antibody, V domains shown)
# VH: EVQLVESGGDLVQPGGSLRLSCAASGFTFSGYTLNWVRQAPGKGLEWVSNINSRSSLIYYTDSVKGRFTISRDNAKNSLYLQMNSLRDEDTAVYFCARDQYNWNYYYGMDVWGQGTTVTVSS
# VL: DIQMTQSPSSLSASVGDRVTITCRASQGIRNDLGWYQQKPGKAPKRLIYAASSLQSGVPSRFSGSGSGTEFTLTISNLQPEDFATYYCLQHNSYPRSFGQGTKLEIK
# notes: Human antibody from XenoMouse hybridoma; also called L20H20
# B5: antibody A-17 (antibody, V domains shown)
# VH: QVQLVQSGAEVKKPGASVKVSCKASGYTFTSYGISWARQAPGQGLEWMGWIGVYNGHTKYAQKFQGRVTMTTDTSTSTAYMELRSLRSDDTAIFYCARRVAVAGYFDYWGQGTLVTVSS
# VL: QSVLTQPPSVSGAPGQRVTISCTGSSSNIGAGYAVHWYQQLPGTAPKLLIYDNNNRPSGVPDRFSGSKSGTSASLAITGLQAEDEADYYCQSYDSSLSAIFGGGTKLTVL
# notes: Human antibody from XenoMouse hybridoma (IgG2 or IgG4 strains), purified from conditioned medium; also called L17H17
# B6: antibody A-23 (antibody, V domains shown)
# VH: EVRLVESGGGLVQPGGSLRLSCTASGFPFNRYAMNWVRQAPGKGLEWVSYIGSSSSAIYYADSVKGRFTISRDNAKNSLYLQMNSLRDEDTAVYYCARYSSGWSPLFDYWGQGTLVTVSS
# VL: DIQMTQSPSSVSASVGDRVTITCRASQGISSWLAWYQQKPGKAPKLLIYTASTLQSGVPSRFSGSGSGTDFTLTISSLQPEDFATYYCQQSNSFPLTFGGGTKVEIK
# notes: Human antibody from XenoMouse hybridoma (IgG2 or IgG4 strains), purified from conditioned medium; also called L23H23
# B7: antibody A-9 (antibody, V domains shown)
# VH: QVQLVESGGGVVQPGRSLRLSCAASGFTFSSYGMHWVRQAPGKGLEWVAVMWYDGSNKDYVDSVKGRFTISRDNSKNTLYLQMNRLRAEDTAVYYCAREKDHYDILTGYNYYYGLDVWGQGTTVTVSS
# VL: B4 VL with Q55E, N77S, L78V, A84V, Y94N, R96L, S97T, Q100G, L104V
# B8: antibody A-11 (antibody, V domains shown)
# VH: QVQLVESGGGVVQPGRSLRLSCAASGSTFRSYDMHWVRQAPGKGLEWVAFISDDGSNKYYGDSVKGRLTISRDNSKNTLYLQMNSLRAEDTAVYYCARDQYDILTGYSSDAFDIWGQGTMVTVSS
# VL: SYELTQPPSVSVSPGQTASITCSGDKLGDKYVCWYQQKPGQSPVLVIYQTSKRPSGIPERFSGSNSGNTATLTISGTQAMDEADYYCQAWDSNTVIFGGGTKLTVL
# B9: antibody A-13 (antibody, V domains shown)
# VH: B8 VH with F50V, D53Y
# VL: not shown
# B10: antibody A-12 (antibody, V domains shown)
# VH: B8 VH
# VL: not shown
# B11: antibody A-1 (antibody, V domains shown)
# VH: QVQLVESGGGVVQPGRSLRLSCAASGITFSSYGMHWVRQAPGKGLEWVASIWYDGSNKYYVDSVKGRFTIFRDNSKKTLYLQMNRLRAEDTAVYYCARLGGGFDYWGQGTLVTVSS
# VL: DIVLTQTPLSLPVTPGEPASISCRSSQSLLDRDDGDTYLDWYLQKPGQSPQLLIYTLSYRASGVPDRFSGSGSGTDFSLKISRVEAEDVGVYYCMQRIEFPFTFGPGTKVDIK
# B12: antibody A-2 (antibody, V domains shown)
# VH: B11 VH with A40G, S50F, N57E, F71S, K77N, R85S, L99M
# VL: B11 VL with L4M, R32S, D33A, G74D
# B13: antibody A-22 (antibody, V domains shown)
# VH: B11 VH
# VL: B11 VL
# B14: antibody A-8 (antibody, V domains shown)
# VH: B11 VH with V5A, A23T, S50G, S56R, F71S, R85S, G100A, G101V, G102A
# VL: B11 VL with L4M, S26T, R32S, S78T
# B15: antibody A-7 (antibody, V domains shown)
# VH: QVQLVESGGGVVQPGRSLRLSCAASGFTFSSYDMHWVRQAPGKGLEWVAVISHDGSDKYYADSVKGRFTISRDNSKNTLYLQMSSLRAEDTAVYYCAREKPYYDILTGYFYYYGMDVWGQGTTVTVSS
# VL: B4 VL with I21V, G28D, L33F, N77S, H91Q, R96L, S97T, Q100G, L104V
# B16: antibody A-5 (antibody, V domains shown)
# VH: QVQLVESGGGVVQPGRSLRLSCAASGFTFSTYGMHWVRQAPGKGLEWVAVISDDGSHKYSADSVKGRFTISRDNSKNTLYLQMNSLRTEDSAVYYCAREETYYDILTGYHHYYGMDVWGQGTTVTVSS
# VL: B4 VL with S14F, I48L, T69S, N77S, Y94D, R96L, S97T, K103R
# B17: antibody A-14 (antibody, V domains shown)
# VH: QVQLVESGGGVVQPGRSLRLSCAASGFTFSNYGMHWVRQAPGKGLEWVAVIWYDGSNKYYADSVKGRFTISRDNSKNTLYLQMNSLRAEDTAVYYCARAYYDILTDYPQYDYYYGMDVWGQGTTVTVSS
# VL: NFMLTQPHSVSESPGKTVTISCTRSSGSIVSNFVQWYQQRPGSSPTTVIYEDNQRPSGVPDRFSGSIDSSSNSASLTISGLKTEDEADYYCQSYDTSNQVFGGGTKLTVL
# B18: antibody A-6 (antibody, V domains shown)
# VH: QVQLVESGGGVVQPGRSLRLSCAASGFTFSSYGMHWVRQAPGKGLEWVAEIWNDGSNKYYADSVKGRFTISRDNPKNTLYLQMNSLRAEDTAVYYCAREPQYYDILTGYDNYYGMDVWGQGTTVTVSS
# VL: EIVLTQSPGTLSLFPGERATLSCRASQSVSSNYLAWYQQKSGQAPRLLIYGASSRATGIPDRFSGSGSGTDFTLTISRLEPEDFAVYYCQQYGNSPFTFGPGTNVDIK
# B19: antibody A-15 (antibody, V domains shown)
# VH: QVQLVESGGGVVQPGKSLRLSCAVSGFIFSSYGMHWVRQAPGKGLEWVALISFDGSNKYYADSVKGRFTISRDNSKNTLYLQMNSLRAEDTAVYYCARDGYYDILTGYEDDAFDIWGQGTMVTVSS
# VL: not shown
# Molecular target: T1, chimera-15 (amino acids 80-119 from human GCGR, remainder from human GLP-1 receptor) (human, UniProt P43220 24-83; P43220 125-463)
# T1 construct: Expressed on cells; not shown: in-frame C-terminal fluorescent protein, not identified
# Test: FMAT on cells expressing the chimeric receptor
row,Binder,binding result
1,B1,no binding
2,B2,no binding

# Molecular target: T2, chimera-8 (amino acids 80-477 from human GCGR, remainder from human GLP-1 receptor) (human, UniProt P43220 24-83)
# T2 construct: Expressed on cells; not shown: in-frame C-terminal fluorescent protein, not identified
# Test: FMAT on cells expressing the chimeric receptor
row,Binder,binding result
1,B1,no binding
2,B2,no binding

# Molecular target: T3, chimera-10 (amino acids 80-142 from human GCGR, remainder from human GLP-1 receptor) (human, UniProt P43220 24-83; P43220 146-463)
# T3 construct: Expressed on cells; not shown: in-frame C-terminal fluorescent protein, not identified
# Test: FMAT on cells expressing the chimeric receptor
row,Binder,binding result
1,B1,no binding
2,B2,no binding

# Molecular target: T4, human glucagon receptor (human, UniProt P47871 26-477)
# T4 construct: also called human GCGR; GCGR
# Test: competition with 1 nM Alexa-labeled A-3 for human GCGR on CHO cells, FMAT
row,Binder,binding result
1,B3,binds
2,B4,binds
3,B5,binds
4,B6,binds

# Molecular target: T4, human glucagon receptor
# Test: cell-based or functional assay
row,Binder,"IC50 of inhibition of glucagon-induced cAMP production (HTRF, CHO K1 cells expressing the receptor)"
1,B7,7.4 nM

# Molecular target: mouse glucagon receptor (mouse (Mus musculus), UniProt Q61606 27-485)
# Test: cell-based or functional assay
row,Binder,"IC50 of inhibition of glucagon-induced cAMP production (HTRF, CHO K1 cells expressing the receptor)"
1,B7,4.1 nM

# Molecular target: T5, cynomolgus glucagon receptor (cynomolgus (Macaca fascicularis), UniProt P47871 26-477 (human entry))
# T5 chain: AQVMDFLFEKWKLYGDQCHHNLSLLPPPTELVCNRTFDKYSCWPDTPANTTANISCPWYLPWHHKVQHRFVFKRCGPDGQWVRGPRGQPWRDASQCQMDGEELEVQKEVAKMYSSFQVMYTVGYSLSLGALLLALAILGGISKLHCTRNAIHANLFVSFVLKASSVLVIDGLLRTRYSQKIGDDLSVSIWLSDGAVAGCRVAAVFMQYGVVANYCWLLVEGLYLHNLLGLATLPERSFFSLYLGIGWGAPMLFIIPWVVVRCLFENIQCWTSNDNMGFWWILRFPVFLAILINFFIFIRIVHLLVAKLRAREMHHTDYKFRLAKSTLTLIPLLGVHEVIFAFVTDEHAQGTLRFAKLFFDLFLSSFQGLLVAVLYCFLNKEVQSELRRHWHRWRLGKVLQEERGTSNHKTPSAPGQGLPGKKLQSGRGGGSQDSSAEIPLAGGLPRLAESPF
# Test: cell-based or functional assay
row,Binder,"IC50 of inhibition of glucagon-induced cAMP production (HTRF, CHO K1 cells expressing the receptor)"
1,B7,26.6 nM

# Molecular target: rat glucagon receptor (rat (Rattus norvegicus), UniProt P30082 27-485)
# Test: cell-based or functional assay
row,Binder,"IC50 of inhibition of glucagon-induced cAMP production (HTRF, CHO K1 cells expressing the receptor)"
1,B7,9.9 nM

# Molecular target: T4, human glucagon receptor
# Test: cell-based or functional assay
# Remark: another data set of the same source
row,Binder,"IC50 of inhibition of glucagon-induced cAMP production (HTRF, CHO K1 cells expressing the receptor)"
1,B8,16.7 nM
2,B9,72.6 nM
3,B10,21.3 nM
4,B1,204 nM
5,B11,15 nM
6,B12,10.1 nM
7,B13,7.2 nM
8,B14,10.4 nM
9,B15,8.8 nM
10,B16,13.3 nM
11,B17,458 nM
12,B18,32.2 nM
13,B19,11.3 nM
